Measurements: the supplement of paper PMC9112550, “Optimization of the antimicrobial peptide Bac7 by deep mutational scanning” (BMC Biology, 2022)

Tested on: Escherichia coli TOP10
Experiment: shrunken log2 fold change of peptide-encoding DNA abundance (4.5 h post-induction vs induction); higher = less antimicrobial activity (less host growth inhibition)
Settings: time post-induction: 4.5 h; library: site-saturation at positions 5, 18, 19, 20
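Note: peptides expressed intracellularly from a pBAD plasmid library in pooled LB shake-flask culture, induced with 0.3% L-arabinose, DNA abundance read by NGS, three biological replicates, DESeq2 with apeglm shrinkage.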

| Sequence | shrunken log2 fold change |
| --- | --- |
| RRIRERPPRLPRPRPRPPRRPRP | 0.408 |
| RRIRMRPPRLPRPRPRPGTDPRP | 1.19 |
| RRIRPRPPRLPRPRPRPWLYPRP | -0.0765 |
| RRIRHRPPRLPRPRPRPWVFPRP | 0.139 |
| RRIRARPPRLPRPRPRPPHVPRP | 0.805 |
| RRIRVRPPRLPRPRPRPFARPRP | 0.206 |
| RRIRLRPPRLPRPRPRPHYDPRP | -0.0502 |
| RRIRTRPPRLPRPRPRPQPQPRP | 0.222 |
| RRIRLRPPRLPRPRPRPYWRPRP | 0.231 |
| RRIRIRPPRLPRPRPRPIGLPRP | -0.242 |
| RRIRPRPPRLPRPRPRPDLEPRP | 0.063 |
| RRIRYRPPRLPRPRPRPREKPRP | 0.124 |
| RRIRWRPPRLPRPRPRPLSCPRP | 0.154 |
| RRIRSRPPRLPRPRPRPLGIPRP | -0.036 |
| RRIRCRPPRLPRPRPRPESWPRP | 0.598 |
| RRIRGRPPRLPRPRPRPNNKPRP | 0.0225 |
| RRIRVRPPRLPRPRPRPFTYPRP | -0.105 |
| RRIRGRPPRLPRPRPRPYMAPRP | -0.388 |
| RRIRYRPPRLPRPRPRPCTMPRP | -0.347 |
| RRIRDRPPRLPRPRPRPSPMPRP | 0.136 |
| RRIRWRPPRLPRPRPRPNTKPRP | -0.187 |
| RRIRARPPRLPRPRPRPTETPRP | 1.11 |
| RRIRARPPRLPRPRPRPDMKPRP | -0.0184 |
| RRIRPRPPRLPRPRPRPWEPPRP | 0.0548 |
| RRIRFRPPRLPRPRPRPHERPRP | 0.0652 |

| Sequence | shrunken log2 fold change |
| --- | --- |
| RRIRARPPRLPRPRPRPFTPPRP | -0.0978 |
| RRIRLRPPRLPRPRPRPYARPRP | -0.44 |
| RRIRQRPPRLPRPRPRPEYPPRP | -0.22 |
| RRIRHRPPRLPRPRPRPFEDPRP | 0.0112 |
| RRIRFRPPRLPRPRPRPTVVPRP | 0.174 |
| RRIRARPPRLPRPRPRPRGAPRP | 0.961 |
| RRIRVRPPRLPRPRPRPGRGPRP | 0.632 |
| RRIRLRPPRLPRPRPRPWMLPRP | -0.0153 |
| RRIRKRPPRLPRPRPRPWKRPRP | 0.024 |
| RRIRPRPPRLPRPRPRPMPHPRP | -0.169 |
| RRIRYRPPRLPRPRPRPKTWPRP | -0.132 |
| RRIRSRPPRLPRPRPRPYELPRP | 0.093 |
| RRIRARPPRLPRPRPRPIMHPRP | -0.171 |
| RRIRWRPPRLPRPRPRPNIHPRP | -0.392 |
| RRIRMRPPRLPRPRPRPRNMPRP | 0.281 |
| RRIRARPPRLPRPRPRPKWMPRP | 0.191 |
| RRIRWRPPRLPRPRPRPDTKPRP | 0.00587 |
| RRIRDRPPRLPRPRPRPHILPRP | 0.0348 |
| RRIRKRPPRLPRPRPRPHENPRP | -0.00978 |
| RRIRNRPPRLPRPRPRPYVSPRP | -0.0285 |
| RRIRARPPRLPRPRPRPCITPRP | 0.178 |
| RRIRDRPPRLPRPRPRPATWPRP | 0.754 |
| RRIRLRPPRLPRPRPRPFPDPRP | -0.0465 |
| RRIRMRPPRLPRPRPRPEFGPRP | 1.22 |
| RRIRGRPPRLPRPRPRPFIGPRP | -0.258 |

| Sequence | shrunken log2 fold change |
| --- | --- |
| RRIRGRPPRLPRPRPRPTRSPRP | 1.18 |
| RRIRPRPPRLPRPRPRPSCSPRP | -0.538 |
| RRIRGRPPRLPRPRPRPWVSPRP | -0.0322 |
| RRIRVRPPRLPRPRPRPIVSPRP | -0.187 |
| RRIRCRPPRLPRPRPRPLWFPRP | -0.315 |
| RRIRDRPPRLPRPRPRPMFIPRP | -0.0363 |
| RRIRQRPPRLPRPRPRPWLYPRP | -0.0636 |
| RRIRVRPPRLPRPRPRPWCMPRP | -0.468 |
| RRIRVRPPRLPRPRPRPEILPRP | -0.0486 |
| RRIRMRPPRLPRPRPRPERSPRP | 3.22 |
| RRIRIRPPRLPRPRPRPTPNPRP | -0.0265 |
| RRIRGRPPRLPRPRPRPEFEPRP | 0.612 |
| RRIRPRPPRLPRPRPRPIAGPRP | 0.0445 |
| RRIRPRPPRLPRPRPRPVTAPRP | 0.385 |
| RRIRSRPPRLPRPRPRPSCWPRP | 0.306 |
| RRIRPRPPRLPRPRPRPGMEPRP | 0.367 |
| RRIRPRPPRLPRPRPRPEAPPRP | 0.53 |
| RRIRYRPPRLPRPRPRPKLGPRP | -0.0974 |
| RRIRGRPPRLPRPRPRPLQHPRP | 1.18 |
| RRIRGRPPRLPRPRPRPCHQPRP | -0.0488 |
| RRIRDRPPRLPRPRPRPFDIPRP | 0.289 |
| RRIRERPPRLPRPRPRPCNTPRP | -0.118 |
| RRIRWRPPRLPRPRPRPCCKPRP | 0.0725 |
| RRIRPRPPRLPRPRPRPPASPRP | 0.559 |
| RRIRPRPPRLPRPRPRPTRSPRP | 0.365 |

| Sequence | shrunken log2 fold change |
| --- | --- |
| RRIRNRPPRLPRPRPRPGASPRP | 0.412 |
| RRIRQRPPRLPRPRPRPSVDPRP | -0.00902 |
| RRIRWRPPRLPRPRPRPWGNPRP | 0.149 |
| RRIRCRPPRLPRPRPRPDHGPRP | -0.234 |
| RRIRMRPPRLPRPRPRPGWDPRP | 0.297 |
| RRIRWRPPRLPRPRPRPHHTPRP | -0.313 |
| RRIRCRPPRLPRPRPRPNYAPRP | -0.0784 |
| RRIRIRPPRLPRPRPRPWIEPRP | -0.186 |
| RRIRWRPPRLPRPRPRPGQEPRP | 0.617 |
| RRIRKRPPRLPRPRPRPGLWPRP | 0.66 |
| RRIRDRPPRLPRPRPRPDLCPRP | -0.0018 |
| RRIRKRPPRLPRPRPRPYLNPRP | -0.362 |
| RRIRSRPPRLPRPRPRPAKQPRP | 0.134 |
| RRIRGRPPRLPRPRPRPKYYPRP | 0.0864 |
| RRIRDRPPRLPRPRPRPAGGPRP | 1.11 |
| RRIRMRPPRLPRPRPRPAMQPRP | 0.404 |
| RRIRFRPPRLPRPRPRPAWMPRP | 0.336 |
| RRIRERPPRLPRPRPRPEVAPRP | 0.907 |
| RRIRERPPRLPRPRPRPTTLPRP | -0.325 |
| RRIRFRPPRLPRPRPRPAWLPRP | 0.231 |
| RRIRTRPPRLPRPRPRPAWYPRP | -0.172 |
| RRIRFRPPRLPRPRPRPQDMPRP | 0.028 |
| RRIRRRPPRLPRPRPRPYMCPRP | 0.154 |
| RRIRNRPPRLPRPRPRPAMSPRP | -0.137 |
| RRIRKRPPRLPRPRPRPKDEPRP | 0.0833 |

| Sequence | shrunken log2 fold change |
| --- | --- |
| RRIRTRPPRLPRPRPRPKKEPRP | -0.0512 |
| RRIRWRPPRLPRPRPRPSGWPRP | 0.422 |
| RRIRKRPPRLPRPRPRPMSIPRP | -0.0141 |
| RRIRPRPPRLPRPRPRPWMLPRP | -0.168 |
| RRIRARPPRLPRPRPRPDVWPRP | 0.342 |
| RRIRVRPPRLPRPRPRPDEPPRP | 0.225 |
| RRIRLRPPRLPRPRPRPVPCPRP | -0.239 |
| RRIRFRPPRLPRPRPRPFDLPRP | -0.352 |
| RRIRPRPPRLPRPRPRPRYKPRP | -0.269 |
| RRIRWRPPRLPRPRPRPMIIPRP | -0.0264 |
| RRIRNRPPRLPRPRPRPWFAPRP | 0.801 |
| RRIRKRPPRLPRPRPRPCLWPRP | 0.0613 |
| RRIRGRPPRLPRPRPRPLMIPRP | 0.139 |
| RRIRSRPPRLPRPRPRPIDWPRP | 0.217 |
| RRIRSRPPRLPRPRPRPQEMPRP | 0.111 |
| RRIRPRPPRLPRPRPRPDWCPRP | -0.179 |
| RRIRTRPPRLPRPRPRPMCRPRP | -0.0404 |
| RRIRNRPPRLPRPRPRPSDSPRP | -0.0909 |
| RRIRLRPPRLPRPRPRPVQFPRP | -0.38 |
| RRIRIRPPRLPRPRPRPKCAPRP | 0.0106 |
| RRIRERPPRLPRPRPRPWKHPRP | -0.176 |
| RRIRDRPPRLPRPRPRPRYPPRP | -0.0457 |
| RRIRLRPPRLPRPRPRPFAVPRP | -0.0849 |
| RRIRVRPPRLPRPRPRPCWMPRP | -0.46 |
| RRIRMRPPRLPRPRPRPKIFPRP | 0.0739 |

| Sequence | shrunken log2 fold change |
| --- | --- |
| RRIRCRPPRLPRPRPRPGPRPRP | 0.713 |
| RRIRQRPPRLPRPRPRPFAAPRP | 0.336 |
| RRIRERPPRLPRPRPRPRELPRP | 0.569 |
| RRIRQRPPRLPRPRPRPNSIPRP | -0.21 |
| RRIRTRPPRLPRPRPRPIGNPRP | -0.0759 |
| RRIRTRPPRLPRPRPRPTWMPRP | -0.0339 |
| RRIRARPPRLPRPRPRPVMLPRP | -0.19 |
| RRIRFRPPRLPRPRPRPFWVPRP | -0.0435 |
| RRIRERPPRLPRPRPRPNGQPRP | 0.0342 |
| RRIRHRPPRLPRPRPRPEWYPRP | 0.0294 |
| RRIRIRPPRLPRPRPRPDGSPRP | -0.189 |
| RRIRTRPPRLPRPRPRPYPWPRP | -0.178 |
| RRIRIRPPRLPRPRPRPRICPRP | -0.3 |
| RRIRYRPPRLPRPRPRPNESPRP | 0.0169 |
| RRIRTRPPRLPRPRPRPAQDPRP | 0.111 |
| RRIRLRPPRLPRPRPRPSFEPRP | 0.0552 |
| RRIRRRPPRLPRPRPRPWTVPRP | -0.00497 |
| RRIRLRPPRLPRPRPRPSPNPRP | -0.183 |
| RRIRSRPPRLPRPRPRPDSLPRP | 0.00187 |
| RRIRERPPRLPRPRPRPSQVPRP | -0.0606 |
| RRIRARPPRLPRPRPRPWKYPRP | -0.408 |
| RRIRIRPPRLPRPRPRPHYDPRP | -0.801 |
| RRIRKRPPRLPRPRPRPCTIPRP | -0.204 |
| RRIRARPPRLPRPRPRPFNCPRP | -0.357 |
| RRIRCRPPRLPRPRPRPVPKPRP | 0.339 |
